This note sets out measurements from patent US20210121565A1 (Eli Lilly, published 2021).

Usually EC50 stands for the midpoint of the concentration-response curve. By koff is commonly meant the first-order rate constant of dissociation. High values mean a short-lived complex, low ones a long-lived complex. One may read the kon as the rate constant with which the complex forms. Low readings indicate slower complex formation, high ones faster complex formation.

The target in experiment [1] is T1, aggregate tau fibrils purified from AD brain homogenates (MC1-affinity purified) (human, UniProt P10636-8 2-441, limits assumed).
T1 construct: Brain-derived material coated on ELISA plates at 0.7 ug/ml total tau; also called Purified AD Tau Fibrils; purified tau fibrils
The experiment in a line: ELISA, purified AD tau fibrils coated on plate, anti-human IgG-HRP detection. As for the experimental part: Enzyme-Linked Immunosorbant Assay (ELISA) is used to determine relative binding affinity of the exemplified anti-Tau antibody (having both HCs of SEQ ID NO.2 and both LCs of SEQ ID NO.1) to aggregate tau fibrils from AD brain homogenates. AD brain homogenates are prepared from approx. 80 g of cortex from brain of AD patients. Briefly, buffer (TBS/1 mM PMSF/1× Complete® protease inhibitor cocktail (Roche, p/n. 11 697 498 001) and phosphatase inhibitor (ThermoFischer, p/n. 78428)) is added to the AD brain tissue at about 10 ml/1 g (tissue). Tissue is homogenized using a handheld Kinematica Polytron at speed 6-7. Tissue is then further homogenized using Parr Bomb (Parr Instrument, p/n. 4653) at 1500 psi of nitrogen for 30 mins. Homogenate is spun at 28,000 g (J14 Beckman rotor) for 30 min at 4° C. Supernatant is collected, pooled and run over a 4 cm high guard column of Sepharose 400 Superflow to remove larger debris, then run over 25 ml MC1-Affigel 10 column at a flow rate of 50-60 ml per hour, in order to purify MC1-binding tau fibrils. To maximize the recovery of purification, supernatants are recycled through MC-1 column over 18-20 hours at 4° C. […] The concentration of tau within the tau fibrils purified from AD brain homogenate is measured by sandwich ELISA using DA-9 capture antibody and CP27 detection antibody. […]
Background: In an ELISA, binding on a coated surface is turned into a signal by an enzyme label.

For experiment [2], the target named is T2, human tau aggregates (amino acid sequence of SEQ ID NO.13) (human, UniProt P10636 2-758).
T2 construct: also called fibril tau; tau fibril aggregate
The experiment in a line: SPR (Biacore 2000, 25 C), antibody captured on protein A, tau aggregate as analyte, KD=koff/kon, not normalized for avidity. As to the method: (§1) Surface Plasmon Resonance (SPR) assay, measured with a BIACORE® 2000 instrument (primed with HBS-EP+running buffer (GE Healthcare, 10 mM Hepes pH7.4+150 mM NaCl+3 mM EDTA+0.05% surfactant P20) at 25° C.), is used to measure binding of an exemplified anti-Tau antibody (having both HCs of SEQ ID NO.2 and both LCs of SEQ ID NO.1) to both human monomeric (e.g., native or non-aggregate) tau and human tau aggregates (both having the amino acid sequence as set forth in SEQ ID NO.13).
(§2) Except as noted, all reagents and materials are from BIACORE® AB (Upsala, Sweden). A CMS chip containing immobilized protein A (generated using standard NHS-EDC amine coupling) on all four flow cells (FC) is used to employ a capture methodology. Antibody samples are prepared at 0.5 μg/mL by dilution into running buffer. […]
(§3) Data of binding to tau aggregate is processed using standard double-referencing and fit to a 1:1 binding model using Biacore 2000 Evaluation software, version 4.1, to determine the association rate (kₒₙ, M⁻¹s⁻¹ units), dissociation rate (koff, s⁻¹ units), and Rₘₐₓ (RU units). The equilibrium dissociation constant (KD) was calculated from the relationship KD=koff/kₒₙ, and is in molar units. Data of binding to monomeric tau cannot be determined accurately by SPR as described above due to rapid on- and off-rates. […]

Experiment [3] addresses T2, human tau aggregates (amino acid …). The experiment in a line: SPR (Biacore 2000, 25 C), antibody captured on protein A, tau aggregate as analyte, 1:1 fit. As to the method: as §1, §2, §3
For orientation: SPR reads the build-up and loss of mass on a sensor chip optically.

Experiment [4] has as its target T3, human monomeric (native or non-aggregate) tau (human, UniProt P10636 2-758).
T3 construct: No tag or expression host is stated; also called Monomeric Tau; monomeric tau
The experiment in a line: SPR (Biacore 2000, 25 C), antibody captured on protein A, tau as analyte, steady state fit. As for the experimental part:
as §1, §2, §3

T2 sequence (P10636 other isoform, or with tags, fused parts or gaps limits assumed): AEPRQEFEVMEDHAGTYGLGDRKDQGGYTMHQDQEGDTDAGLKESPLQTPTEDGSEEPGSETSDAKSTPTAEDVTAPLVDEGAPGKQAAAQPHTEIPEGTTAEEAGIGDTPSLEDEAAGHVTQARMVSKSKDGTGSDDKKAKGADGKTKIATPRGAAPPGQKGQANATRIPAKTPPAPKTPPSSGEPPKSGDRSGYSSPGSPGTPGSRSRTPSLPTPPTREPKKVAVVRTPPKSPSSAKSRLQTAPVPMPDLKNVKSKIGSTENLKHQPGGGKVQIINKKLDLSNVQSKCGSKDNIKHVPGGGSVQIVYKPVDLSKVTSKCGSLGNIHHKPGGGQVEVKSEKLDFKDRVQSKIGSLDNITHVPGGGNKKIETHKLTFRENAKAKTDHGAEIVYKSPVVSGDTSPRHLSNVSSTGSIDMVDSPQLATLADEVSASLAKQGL
T3 sequence (P10636 other isoform, or with tags, fused parts or gaps limits assumed): as above
T1 sequence (P10636 other isoform, or with tags, fused parts or gaps limits assumed): as above

B1: Exemplified anti-Tau antibody (having both HCs of SEQ ID NO.2 and both LCs of SEQ ID NO.1) (antibody, human IgG4 S228P, kappa, F234A L235A, V domains shown)
VH: EVQLVQSGAEVKKPGESLKISCKGSGYTFSNYWIEWVRQMPGKGLEWMGEILPGSDSIKYEKNFKGQVTISADKSISTAYLQWSSLKASDTAMYYCARRGNYVDDWGQGTLVTVSS
VL: EIVLTQSPGTLSLSPGERATLSCRSSQSLVHSNQNTYLHWYQQKPGQAPRLLIYKVDNRFSGIPDRFSGSGSGTDFTLTISRLEPEDFAVYYCSQSTLVPLTFGGGTKVEIKR
notes: It was expressed in CHO cells; also called Exemplified anti-Tau mAb; exemplified tau monoclonal antibody
Consider B1, for which the half-maximal effective concentration (EC50) in experiment [1] was 6.8 pM. In addition, the values for the Kd in experiment [2] and in experiment [4] were below 0.22 nM and 235 nM, respectively. The same molecule came in with a koff in experiment [3] below 1e-05 s⁻¹. Moreover, the kon in experiment [3] stood at 45900 M⁻¹ s⁻¹.
